Data as given in patent US9518268B2, “Drought tolerant transgenic plants and method of making same” (PURDUE RESEARCH FOUNDATION, priority 2013, dated 2016).

Biological target: T1, PP2CA (Arabidopsis thaliana, UniProt P49598)
T1 construct: GST (N, cleaved yes); made in house; host or cells: Escherichia coli BL21 (DE3.0)
T1 sequence (P49598 1-399): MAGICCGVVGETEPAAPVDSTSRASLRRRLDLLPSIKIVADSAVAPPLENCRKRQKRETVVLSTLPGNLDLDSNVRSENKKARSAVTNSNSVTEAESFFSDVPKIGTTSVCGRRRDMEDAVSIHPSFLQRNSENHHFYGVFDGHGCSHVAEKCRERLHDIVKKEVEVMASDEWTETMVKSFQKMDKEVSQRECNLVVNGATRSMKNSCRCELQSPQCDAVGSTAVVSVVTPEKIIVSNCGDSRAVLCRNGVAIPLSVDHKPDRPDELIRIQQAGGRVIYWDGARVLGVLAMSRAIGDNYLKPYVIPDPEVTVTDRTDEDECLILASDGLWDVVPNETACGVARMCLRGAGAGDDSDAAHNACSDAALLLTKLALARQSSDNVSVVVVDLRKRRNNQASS
T1 sequence (Q9SN51 1-164 partner): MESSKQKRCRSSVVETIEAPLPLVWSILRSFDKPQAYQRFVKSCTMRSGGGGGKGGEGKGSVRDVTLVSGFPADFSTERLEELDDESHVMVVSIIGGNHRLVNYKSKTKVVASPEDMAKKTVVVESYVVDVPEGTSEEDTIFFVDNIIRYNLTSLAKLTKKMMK
Experiment: Phosphatase activity assay (pNPP) with purified PP2Cs and PYLs
Type: biochemical
Details: PP2Cs and PYLs 0.3 μM
Procedure: The inhibition by PYL13 is ABA-independent, whereas the inhibition by PYR1 and PYL2 is ABA-induced (FIG. 4B). […] The phosphatase activities of PP2CA, ABI1, and ABI2 were measured in the absence or presence of ABA (1.25 μM), and with or without PYLs. The concentration of PP2Cs and PYLs was 0.3 μM. The A405 value of reaction without PP2C was set as 0% and that of the reaction with PP2C but without ABA and PYLs was set as 100%. Error bars indicate s.e.m. (n=6 for PP2CA and ABI2, and n=3 for ABI1).
Phosphatase activity was measured using the colorimetric substrate p-nitrophenyl phosphate (pNPP, SIGMA). Reactions were performed in a reaction buffer containing 50 mM Tris-HCl, pH 7.5, 25 mM Mg(OAc)2, 2 mM MnCl2, 0.5 mM EGTA, 0.5% β-mercaptoethanol, and 0.5% BSA. ABA and PYLs were added as indicated. The concentration of PP2Cs and PYLs was 0.3 μM. Reactions were initiated by the addition of pNPP to a final concentration of 50 mM. The hydrolysis of pNPP was measured by following the absorbance at 405 nm (A405). Because His-PYL13 is difficult to purify, is prone to degradation, and rapidly loses activity, newly purified PYL13 was used for the phosphatase activity assay.

B1: PYL13: Arabidopsis thaliana PYR/PYL/RCAR family protein PYL13, SEQ ID NO: 1 (protein, listed as Arabidopsis thaliana)
chain: MESSKQKRCRSSVVETIEAPLPLVWSILRSFDKPQAYQRFVKSCTMRSGGGGGKGGEGKGSVRDVTLVSGFPADFSTERLEELDDESHVMVVSIIGGNHRLVNYKSKTKVVASPEDMAKKTVVVESYVVDVPEGTSEEDTIFFVDNIIRYNLTSLAKLTKKMMK
PP2CA phosphatase activity reduced to (with 1.25 μM ABA): 54±5% | PP2CA phosphatase activity reduced to (without ABA, PP2C without ABA and PYLs = 100%): 55±5%
